# Assay: soluble on expression in E. coli; label from the status in PepcDB or PDB records
row,Sequence,soluble on expression in E. coli
1,MTKDLLLELGLEELPAYVVTPSEKQLGQKMVKFLEDHRLSFETVQIFSTPRRLAVRVKGLADQQTDLTEDFKGPSKKIALDAEGNFSKAAQGFVRGKGLSVDDIEFREVKGEEYVYVTKHETGKSAIDVLASVTEVLTELTFPVNMHWANNSFEYIRPVHTLVVLLDDQALELDFLDIHSGRISRGHRFLGSDTEISSASSYEDDLRQQFVIADAKERQQMIVNQIHAIEEKKNISVEIDEDLLNEVLNLVEYPTAFLGSFDEKYLDVPEEVLVTSMKNHQRYFVVRDRDGKLLPNFISVRNGNAEHIENVIKGNEKVLVARLEDGEFFWQEDQKLNIADLVEKLKQVTFHEKIGSLYEHMDRVKVISQYLAEKADLSDEEKLAVLRAASIYKFDLLTGMVDEFDELQGIMGEKYALLAGEQPAVAAAIREHYMPTSADGELPETRVGAILALADKFDTLLSFFSVGLIPSGSNDPYALRRATQGIVRILEAFGWDIPLDELVTNLYGLSFASLDYANQKEVMAFISARIEKMIGSKVPKDIREAVLESDTYI,not soluble
2,MGSDKIHHHHHHLAKNNPISIPVSELRLGLTVKLPLSWTEHPFLINRIELKEQAQIEMIRGLKVQHVLVLAGAELLDEDVPKEEVPIEDDGFDEDMPERDVKREARVAIRKSQKRFLDCVNDSRSLVGKLGSDPEGAYRLSATLVEQMLEHLFEQEAAYLALVSAGEQGASVTQHGISVAVLSLMIAKSMDMPKKDMRDIALGALLHDIGKLRVPDNIRRKRGPLTTQEINFMNQHPNYGHEMLSRSGLFPEEVLHIIRHHHEFIDGTGFPGGLNGKKIPRTTQIVTLANDFEDQMTSHSIASPQVALGYLFKHRVGKHDEALIATLVKVLRHLSARYSGASHRRFFGKGDDDHPGSQAASGVGLQRRRRRPRPQNLDE,not soluble
3,MSLSTIDLHVHSNYSDGIHPPADLVKMAAERGLVAIAIADHDTVDGIDEALIAGARLGVEVVPAVELSAEHGRYRDMHILGYHLDHRDPRLVDMLAEFRINREIRGRAIVDKINQRLADGRKPLLSYDEVLNLAEGAVGRPHIGRMLIERGYARNMEDAFRRYLIPCNVPKRYIPAGDAITEIRRAGGVAVLAHPITVSDDRQVLRGIVSELVALGLDGIEVFNNMCYKDDMLFLEFLCRESGLLMTGGSDFHGFEDDVEIGSGRGGLAVSHRLAEAVKNLAESRRITPPGSRTEGHHHHHH,soluble
4,MKTITETLNLAPKGKNFLTADWPAPANVKTLITTRNGGVSQGAYQSLNLGTHVGDNPEAVRRNREIVQQQVGLPVAYLNQIHSTVVVNAAEALGGTPDADASVDDTGKVACAVMTADCLPVLFCDRAGTAVAAAHAGWRGLAGGVLQNTIAAMKVPPVEMMAYLGPAISADAFEVGQDVFDAFCTPMPEAATAFEGIGSGKFLADLYALARLILKREGVGGVYGGTHCTVLERDTFFSYRRDGATGRMASLIWLDGNAV,soluble
5,MSSVGAGFRLARAGWVLVREGVIAALPGEELSGLPKFGWQLARLFTRRRALAYQRSDRLAKAVVRLGPSYVKLGQFLATRPDVVGNDMALDLAMLQDKMHTFPKAEAVAAIEASLGRKVRDLYAEFGLEHHHHHH,not soluble
6,MSLLRQRFVFDTTALTDSQAWESEGCTTLCEGMSAILHRVAQARLHLGISCYVPYPSVYNEIRDFVRNNNCDIAILGKIDTWLVKKTPDRYRVKIPSKIFYEYVDYMRSRINKGMNVSEEAIWEAVSRCLSISATGEGREQMREEIEREVVGSIIRKFREKYRAALRYGILDSAPDIDVLLLAKDLDAAVVSQDLGIQRWAEQLGLRFMEARAFPQMVREYMSFVPLHTEELEDRMVEGHHHHHH,soluble
7,GDYIYADSNNNGVYGDDNDYTFQKTSNKPKYNFGFQASAAWKGFDLSMVWAGAAGFSIYWGATTGYNAASTEWGSTIAQRVAENHYFYNPENPDDPRTNINAKYPRMAYIDGYVQNRHGNTTLWLYKGDYIKLKNLSLGYTLPKNWVSKIAMQNARVYVSAENLLTITGFEGQDPESATGMGYSPFRTIAIGANITF,not soluble
8,MFELDLRSRQPIYEQLIDKMKEMIVRELWQPHDQLPSVRTMAKQLMINPNTIQKAYRELERDGWIYSIPGKGSFVAPRSKEPNIEAIAAVREQFVRLVKEARFLGVTNEQLWQWIREGEERGGES,not soluble
9,MSRNDSLISIIVPVYNVEQYLSRCVDSLVNQTYHNIEIILVDDGSPDRSGEICDEYAKKDKRVKVIHQSNGGLSDARNTALDIAKGDYLMFVDSDDWIEKKTCEILNRLASDYKADTVIFGLNFVFDSGKVIRSKRGMAGLTDKNMCMKYLIHNVARGGIFNYACNKMFSSHLFEGLRFPVGRLAEDQDVIYKLIHRSQRIYVTEQPLYNYYQRDGSITAAQYYPRLIRDRHELWLKRLDFIREYYPDLENYQIAQILGAAYVGIVKLEGNKQNGELKKKLICFSNKYILKEKELSVLDRKIKLHYYCYPLFWLYVKLFIK,not soluble
10,MADPWLSIIGLGEDGPAGLPDASRAALEAAEVVVGGPRHLALVDARARGMEWPVPFDPAPVLALRGRPVAVLASGDPFWHGAGGSLAAALSPGEWRAYPAPGVVALAAARLGWRQEELLALGLHAAPFERLLPELAPGRRGVCTLRDGPAAGALAAFLAAEGWGESRLWVMEALGGPRERVRATTAGAFSLTDVAAPVTVAFEAEGGRAQPRSAGLPDSLFAHDGQITKAPVRALTLAALAPRRGEILWDLGAGSGSVSVEWCLAGGRAVAVELRPERAANIRANAARFALPLEVVEGRALDNLPALPAPDAIFVGGGFDEALFAALPPTARLVVNAVTLETEALLAALQARHGGELLRIELARAAPLGRMRGWEAARPVVQWSLVR,not soluble
11,MHHHHHHSSGVDLGTENLYFQSMRTGYRVFSANSTAACTELAKRITERLGAELGKSVVYQETNGETRVEIKESVRGQDIFIIQTIPRDVNTAVMELLIMAYALKTACARNIIGVIPYFPYSKQSKMRKRGSIVCKLLASMLAKAGLTHIITMDLHQKEIQGFFSFPVDNLRASPFLLQYIQEEIPNYRNAVIVAKSPDAAKRAQSYAERLRLGLAVIHGEAQCTELDMDDGRHSPPMVKNATVHPGLELPLMMAKEKPPITVVGDVGGRIAIIVDDIIDDVESFVAAAEILKERGAYKIYVMATHGILSAEAPRLIEESSVDEVVVTNTVPHEVQKLQCPKIKTVDISLILSEAIRRIHNGESMAYLFRN,soluble
12,MSLSGAVFKTFLTSEHASWNRFNRRLHIPNEDIVDEIQLKARMQQRHHRVYPEIGDSTIVSFRGKDYAVHFIKDGPKDDYVYKVQRITPENGCFSTLFSVFSGGVTKALERKLNERHITPLSSTWFPRTPLEGILAERGLSSLLRRVQSTERLDNRAIATRASSYSVL,not soluble
13,DVQLQESGGGLVQAGGSLRLSCAASGATGSTYDMGWFRQAPGKERESVAAINWGSAGTYYASSVRGRFTISRDNAKKTVYLQMNSLKPEDTAVYTCGAGRIGRSVFNLRRESWVTWWGQGTQVTVSS,soluble
14,METRRIRKVLVANRGEIAIRVFRACTELGIRTVAIYSKEDVGSYHRYKADEAYLVGEGKKPIEAYLDIEGIIEIAKAHDVDAIHPGYGFLSENIQFAKRCREEGIIFIGPNENHLDMFGDKVKARHAAVNAGIPVIPGSDGPVDGLEDVVAFAEAHGYPIIIKAALGGGGRGMRIVRSKSEVKEAFERAKSEAKAAFGSDEVYVEKLIENPKHIEVQILGDYEGNIVHLYERDCSVQRRHQKVVEVAPSVSLSDELRQRICEAAVQLMRSVGYVNAGTVEFLVSGDEFYFIEVNPRIQVEHTITEMITGIDIVQSQILIADGCSLHSHEVGIPKQEDIRINGYAIQSRVTTEDPLNNFMPDTGKIMAYRSGGGFGVRLDAGNGFQGAVITPYYDSLLVKLSTWALTFEQAARKMLRNLREFRIRGIKTNIPFLENVVQHPKFLSGEYDTSFIDTTPELFVF,soluble
15,MGSDKIHHHHHHMTILHSTDFFKAGISTVAIEPRLPQSAFPEHHHDFHEIVIVEQGSGIHVFNGQPYTIGGGSVCFIRDHDRHLYEHTDNLCLTNVLYRAPDAFRFLAGVSQLLPQEQEGNYPSHWRVNQTVLQQVRHIVAQIEAVGSDTDTHAVASREILFMQLLVLLRKSSLAEEATNNDARLNQLLAWLEDHFAQEICWEEVAAQFSLSLRTLHRQLKQQTGLTPQRYLNRVRLMKARHLLRHSDESVTDIAYRCGFGDSNHFSTLFRREFDWSPRDIRQGRDAILQ,not soluble
16,MSLGLPKMEVFQEYYGLPPPPGAIGPFLRLNPGDIVELTKAEAEQNWWEGRNTSTNEIGWFPCNRVKPYVHGPPQDLSVHLWYAGPMERAGAESILANRSDGTFLVRQRVKDAAEFAISIKYNVEVKHIKIMTAEGLYRITEKKAFRGLTELVEFYQQNSLKDCFKSLDTTLQFPFKEPEKRTISRPAVGSTKYFGTAKARYDFCARDRSELSLKEGDIIKILNKKGQQGWWRGEIYGRVGWFPANYVEEDYSEEGHHHHHH,soluble
17,MGSDKIHHHHHHMTDAVEILGAERSGRWVVTCDHACNRVPDDVAGGDLGLPPADMARHIAYDVGALGVARAMGEALNGPVVTSRFSRLVIDPNRGEDDPTLLMQIYDGSIIPANRGASQAEIDRRLDRFHRPYHRALAHVIAQRDDPIVVAIHSFTPQLIGRAPRPWHVSVLYAGDTRLPYPLLARLRDEDDLCVGDNEPYSGHLPGDALDRHGVQPGRLHVLIEVRNDLIETAEDQARWGVRLAQMLEAAATSADL,not soluble
18,LEQARTMSVDEMAANPEINRLMMARIEAAQDSLAAYEKVKYITLLAEPFTLEKGELTETMKLKRRVINEHYAEAIEKMYL,not soluble
19,LSYPNATESVYGLTRYSTNDEAIAGVNNESSITPAKFTVALNNVFETRVSTESSNGVIKISSLPQALAGADDTTAMTPLKTQQLAVKLIAQIAPSKNAATESEQGVIQLATVAQARQGTLREGYAISPYTFMNSTATEEYKGVIKLGTQSEVNSNNASVAVTGATLNGRGSTTSMRGVVKLTTTAGSQSGGDASSALAWNADVIHQRGGQTINGTLRINNTLTIASGGANITGTVNMTGGYIQGKRVVTQNEIDRTIPVGAIMMWAADSLPSDAWRFCHGGTVSASDCPLYASRIGTRYGGSSSNPGLPDMR,soluble
20,MQKVCEKRIDSVVASAVEGSGMFYAVRFEPPPSKTCFDVTLKTYGPPYTEYIVTVAIPPKFPFSPPAITCKTDKNMKFLFLEENQWKPSTGIVAVLIEACSVISRRDLVPRAPVLPRIRPPQARTPTSASPAKSPQKAD,not soluble
21,MKIQDYTKQMVDEKSFIDMAYTLLNDKGETMNLYDIIDEFRALGDYEYEEIENRVVQFYTDLNTDGRFLNVGENLWGLRDWYSVDDIEEKIAPTIQKFDILDADDEEDQNLKLLGEDEMDDDDDIPAQTDDQEELNDPEDEQVEEEINHSDIVIEEDEDELDEDEEVFEDEEDFND,not soluble
22,MGSDKIHHHHHHMDSRDMQAIGLCRFSYPAIGGFQVEHETIEERISYLYAEDRLEERFQLLETVALPCLREQTDQNFELIVVIGDTLPKRHGDRLHDLTSDMPQVRIVVEPPRPQRELMKELLNSARTDPSKPCLQFRYDDDDAVSVDFIERFRNALNDCRGLVTTNRTVAVDFNRGYVAELGADGIAATETVRTLYVASLGMYVKGGCRLTIMNFAHEKIGRFMPVISISDVPMWVRSHNGFNDSRQKKVKPVPVVPLTEDQKAEFAARFAIREDHVKRVFSGG,not soluble
23,MAHHHHHHMLRPTRVSRLVRSGSVALTPSCWTTKPAGWYLVPSSTLPATEELRVGKCFDFLNHSAQYLFLGQVMALAEEVKCIPWLEWFYSELHFSLPPTKEAELLANYMNDQERLRCGLRNHSEGGTSSSDIAWSRELKERVQRRAEEDFCWLLTHDQRKTEKFLQETFIQWHHRADYLVTRKSREKREFREDLTLQKVIQQGQERKRRMQRRRNRDEARQEAIKSGKESEWDNFTHDVLPRELREALDRESDGMEDVRLSRAGTATGGWSRSMRSHPNFR,soluble

# From the DeepSol protein solubility set
